Values quoted from earlier work in publication PMC7432558.

Biological target: TEAD1 (Homo sapiens) (UniProt P28347)
Chain of UniProt P28347 (P28347 whole entry): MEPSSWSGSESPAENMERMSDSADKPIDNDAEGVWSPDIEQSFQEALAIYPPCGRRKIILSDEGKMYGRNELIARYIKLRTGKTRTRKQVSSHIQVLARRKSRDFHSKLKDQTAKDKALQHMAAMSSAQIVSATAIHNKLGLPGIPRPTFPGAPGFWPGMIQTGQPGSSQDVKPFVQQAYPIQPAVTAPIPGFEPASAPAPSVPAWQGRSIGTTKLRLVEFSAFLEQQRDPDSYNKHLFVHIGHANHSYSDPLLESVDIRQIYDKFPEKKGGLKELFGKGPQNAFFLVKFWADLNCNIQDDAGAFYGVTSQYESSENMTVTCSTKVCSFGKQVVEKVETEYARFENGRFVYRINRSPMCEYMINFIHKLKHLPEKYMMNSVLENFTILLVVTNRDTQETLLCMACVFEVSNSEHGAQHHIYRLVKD

YAP-derived cyclic peptide 81-100 (from UniProt P46937)
Kd: 15 nM
